Laboratory results taken from patent publication US20140120095A1 (Boehringer Ingelheim, published 2014).
Where a chain is given by its changes, count along the chain named. Blank lines part the entries; values can stand above or below the binder they belong to.

Experiments:
[1] = target: T1, human DLL4 expressed on cells (CHO-hDLL4; HEK293-hDLL4) (human, UniProt Q9NR61 27-685); test: competition FMAT, labelled hNotch1-Fc on CHO-hDLL4 cells
T1 construct: full length human DLL4 overexpressed on CHO cells (FMAT, FACS) or HEK293 cells (reporter assay)

human DLL1 (Alexis) = target: T2, human DLL1 (Alexis) (human, UniProt O00548 18-545, limits assumed); test: binding ELISA on coated human DLL1 (Example 5.8, Example 7), OD 450 nm
T2 construct: also called hDLL1
T2 sequence (looked up): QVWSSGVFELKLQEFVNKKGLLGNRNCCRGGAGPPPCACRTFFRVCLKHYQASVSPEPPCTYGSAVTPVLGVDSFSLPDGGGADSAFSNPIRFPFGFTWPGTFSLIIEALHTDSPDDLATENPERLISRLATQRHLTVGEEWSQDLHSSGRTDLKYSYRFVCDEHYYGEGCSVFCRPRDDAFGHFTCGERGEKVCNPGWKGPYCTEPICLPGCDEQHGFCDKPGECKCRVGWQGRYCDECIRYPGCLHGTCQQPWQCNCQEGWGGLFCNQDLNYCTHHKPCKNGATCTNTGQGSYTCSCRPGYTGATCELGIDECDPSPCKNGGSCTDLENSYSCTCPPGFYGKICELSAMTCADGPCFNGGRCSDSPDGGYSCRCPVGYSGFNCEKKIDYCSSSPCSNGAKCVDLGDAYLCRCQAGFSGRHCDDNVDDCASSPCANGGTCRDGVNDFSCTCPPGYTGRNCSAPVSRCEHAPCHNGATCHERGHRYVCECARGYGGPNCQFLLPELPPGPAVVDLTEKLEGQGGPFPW

human Jagged-1 (Alexis) = target: T3, human Jagged-1 (Alexis) (human, UniProt P78504 34-1067, limits assumed); test: binding ELISA on coated human Jagged-1 (Example 5.8, Example 7), OD 405 nm
T3 construct: also called hJag-1; hJAG1

[2] = target: T4, recombinant human DLL4 (C-terminally His-tagged extracellular domain, R&D Systems) (human, UniProt Q9NR61 25-522, biotinylated in the competition ELISA); test: SPR (Biacore); summary table
T4 construct: also called rhDLL4; hDLL4

[3] = target: T5, recombinant mouse DLL4 (C-terminally His-tagged extracellular domain, R&D Systems) (mouse, UniProt Q9JI71 27-532); test: SPR (Biacore); summary table
T5 construct: extracellular domain; also called rmDLL4; mDLL4
T5 sequence (Q9JI71 27-532): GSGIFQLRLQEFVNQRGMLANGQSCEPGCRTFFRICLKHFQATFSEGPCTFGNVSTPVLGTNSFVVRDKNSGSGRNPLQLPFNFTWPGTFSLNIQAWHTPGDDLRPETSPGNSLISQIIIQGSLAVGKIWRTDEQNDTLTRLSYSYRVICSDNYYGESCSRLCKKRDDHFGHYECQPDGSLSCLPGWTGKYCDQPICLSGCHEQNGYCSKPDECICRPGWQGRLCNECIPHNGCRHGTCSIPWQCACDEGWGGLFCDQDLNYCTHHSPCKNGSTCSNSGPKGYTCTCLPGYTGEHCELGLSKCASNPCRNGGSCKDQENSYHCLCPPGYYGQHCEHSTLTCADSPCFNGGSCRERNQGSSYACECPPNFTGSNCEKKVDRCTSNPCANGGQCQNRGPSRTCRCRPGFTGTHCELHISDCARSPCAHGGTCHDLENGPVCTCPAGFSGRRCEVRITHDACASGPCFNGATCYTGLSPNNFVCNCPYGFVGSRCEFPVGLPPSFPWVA

[4] = target: T6, mouse DLL4 expressed on CHO cells (mouse, UniProt Q9JI71 27-686); test: competition FMAT CHO-mDLL4; summary table
T6 construct: whole, on cells; also called mDLL4; CHO-mDLL4
T6 sequence (Q9JI71 27-686): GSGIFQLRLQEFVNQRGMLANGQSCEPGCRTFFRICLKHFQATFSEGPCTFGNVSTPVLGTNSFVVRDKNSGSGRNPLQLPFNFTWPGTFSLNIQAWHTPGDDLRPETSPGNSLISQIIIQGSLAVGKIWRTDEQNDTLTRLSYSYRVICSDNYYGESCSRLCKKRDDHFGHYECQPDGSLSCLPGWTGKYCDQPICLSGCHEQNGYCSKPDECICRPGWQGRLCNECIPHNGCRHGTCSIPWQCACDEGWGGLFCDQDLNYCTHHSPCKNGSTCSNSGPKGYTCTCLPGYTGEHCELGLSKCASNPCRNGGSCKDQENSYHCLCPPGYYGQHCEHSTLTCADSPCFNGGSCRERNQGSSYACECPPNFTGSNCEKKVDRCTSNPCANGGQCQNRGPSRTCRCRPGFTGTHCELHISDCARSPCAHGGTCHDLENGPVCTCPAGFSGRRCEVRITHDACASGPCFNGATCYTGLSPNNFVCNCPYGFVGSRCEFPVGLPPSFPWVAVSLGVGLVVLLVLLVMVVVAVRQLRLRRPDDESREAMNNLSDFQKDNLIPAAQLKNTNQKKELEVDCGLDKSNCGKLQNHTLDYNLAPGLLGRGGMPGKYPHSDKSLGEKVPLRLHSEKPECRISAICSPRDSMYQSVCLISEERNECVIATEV

[5] = target: T4, recombinant human DLL4 (C-terminally …); test: competition ELISA hDLL4/hNotch1-Fc; summary table
[6] = target: T1, human DLL4 expressed on cells …; test: FACS; summary table, column taken as hDLL4
[7] = target: T1, human DLL4 expressed on cells …; test: FACS on CHO-hDLL4 cells
[8] = target: T4, recombinant human DLL4 (C-terminally …); test: competition ELISA, biotinylated hDLL4 to coated hNotch1-Fc
[9] = target: T5, recombinant mouse DLL4 (C-terminally …); test: SPR (Biacore), rmDLL4
[10] = target: T7, cynomolgus DLL4 expressed on CHO cells (cynomolgus, UniProt Q9NR61 27-685 (human entry)); test: FACS; summary table, column taken as cDLL4
T7 construct: also called cDLL4; CHO-cDLL4
T7 chain: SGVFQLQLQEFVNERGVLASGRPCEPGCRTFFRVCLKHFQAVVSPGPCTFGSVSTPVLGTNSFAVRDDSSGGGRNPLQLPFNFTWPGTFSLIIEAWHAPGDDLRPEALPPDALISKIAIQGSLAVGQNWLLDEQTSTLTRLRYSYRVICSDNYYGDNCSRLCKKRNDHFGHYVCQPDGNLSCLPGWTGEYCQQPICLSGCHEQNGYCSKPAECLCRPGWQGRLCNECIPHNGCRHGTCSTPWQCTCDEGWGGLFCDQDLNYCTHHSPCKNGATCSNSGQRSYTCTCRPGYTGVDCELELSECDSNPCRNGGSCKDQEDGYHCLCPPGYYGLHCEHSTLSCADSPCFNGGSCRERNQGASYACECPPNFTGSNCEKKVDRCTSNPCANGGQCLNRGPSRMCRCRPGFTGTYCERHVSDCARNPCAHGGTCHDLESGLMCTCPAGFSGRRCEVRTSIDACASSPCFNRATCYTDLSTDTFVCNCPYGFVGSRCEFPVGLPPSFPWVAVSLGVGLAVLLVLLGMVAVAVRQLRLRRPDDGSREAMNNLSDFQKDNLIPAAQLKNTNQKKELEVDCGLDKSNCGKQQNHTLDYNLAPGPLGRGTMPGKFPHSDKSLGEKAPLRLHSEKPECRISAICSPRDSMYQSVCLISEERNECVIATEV

[11] = target: T1, human DLL4 expressed on cells …; test: competition FMAT CHO-hDLL4; summary table
[12] = target: T5, recombinant mouse DLL4 (C-terminally …); test: binding ELISA on coated recombinant mouse DLL4 (Example 5.8, Example 7), OD 450 nm
[13] = target: T7, cynomolgus DLL4 expressed on CHO cells; test: FACS on CHO-cDLL4 cells
[14] = target: T1, human DLL4 expressed on cells …; test: cell-based or functional assay
[15] = target: T6, mouse DLL4 expressed on CHO cells; test: competition FMAT, labelled hNotch1-Fc on CHO-mDLL4 cells
[16] = target: T4, recombinant human DLL4 (C-terminally …); test: SPR (Biacore), rhDLL4
Procedure: (§1) Kinetic analysis to determine the affinity of the DII4-VHH interaction is performed by Surface Plasmon Resonance (SPR) on a Biacore T100 instrument. […] Purified VHHs or Fab fragment are injected for 2 minutes at different concentrations (between 10 and 300 nM) and allowed to dissociate for 20 min at a flow rate of 45 μl/min. Between sample injections, the surfaces are regenerated with 10 mM glycine pH1.5 and 100 mM HCl. HBS-N (Hepes buffer pH7.4) is used as running buffer. If possible, data are evaluated by fitting a 1:1 interaction model (Langmuir binding) onto the binding curves. The affinity constant KD is calculated from resulting association and dissociation rate constants (kₐ) and […].

[17] = target: T4, recombinant human DLL4 (C-terminally …); test: binding ELISA on coated recombinant human DLL4 (Example 5.8, Example 7), OD 450 nm
[18] = target: T4, recombinant human DLL4 (C-terminally …); test: SPR (Biacore), recombinant human DLL4
Procedure: as §1

[19] = target: T1, human DLL4 expressed on cells …; test: cell-based or functional assay; remark: listed apart in the source
[20] = target: T6, mouse DLL4 expressed on CHO cells; test: competition FMAT, labelled hNotch1-Fc on CHO-mDLL4 cells; remark: listed apart in the source
[21] = target: T1, human DLL4 expressed on cells …; test: competition FMAT, labelled hNotch1-Fc on CHO-hDLL4 cells; remark: listed apart in the source
[22] = target: T4, recombinant human DLL4 (C-terminally …); test: cell-based or functional assay
recombinant human DLL4 [23] = target: T8, recombinant human DLL4 (human, UniProt Q9NR61 25-522); test: Biacore off-rate, periplasmic extract
T8 construct: also called rhDLL4; hDLL4

recombinant human DLL4 [24] = target: T8, recombinant human DLL4; test: AlphaScreen biot-hDLL4/hNotch1-Fc, periplasmic extract
recombinant human DLL4 [25] = target: T8, recombinant human DLL4; test: hDLL4 ELISA screen, periplasmic extract

B1: DLLBII115A05 (VHH, not shown: small tags and cut ends)
VHH: EVQLVESGGGLVQPGGSLRLSCAASGFTFGSYDMSWVRRSPGKGPEWVSSINSGGGSTYYADFVKGRFTISRDNAKNTLYLQMNSLKPEDTAVYYCAADRYIRARQGDYWGAYEYDYWGQGTQVTVSS
notes: parent VHH; also called 115A05 (wt); 115A5
IC50 [1]: 107 nM
binding result (human DLL1 (Alexis)): no binding (tested: log[M] -6.1 (about 8e-7 M))
binding result (human Jagged-1 (Alexis)): no binding (tested: log[M] -6.1 (about 8e-7 M))
Kd [2]: 16 nM
Kd [3]: 53 nM
IC50 [4]: 349 nM
IC50 [5]: 7.5 nM
EC50 [6]: 11.3 nM
EC50 [7]: 11.3 nM
IC50 [8]: 7.5 nM
Kd [9]: 53 nM
koff [9]: 0.0091 s⁻¹
kon [9]: 170000 M⁻¹ s⁻¹
EC50 [10]: 13.8 nM
IC50 [11]: 107 nM
EC50 (read off the curve) [12]: ~10 nM
EC50 [13]: 13.8 nM
IC50, DLL4-mediated reporter assay [14]: 1340 nM
IC50 [15]: 349 nM
Kd [16]: 16 nM
koff [16]: 0.004 s⁻¹
kon [16]: 250000 M⁻¹ s⁻¹
EC50 (read off the curve) [17]: ~2 nM

B4: DLLBII018 (VHH, not shown: small tags and cut ends)
VHH: EVQLVESGGGLVQPGGSLRLSCAASGRTFSSYAMAWYRQAPGKEREYVAAIRWSGGTAYYADSVKGRFTISRDNAKNTVYLQMNSLRPEDTAVYYCANRAPDTRLAPYEYDHWGQGTLVTVSS
Kd [18]: 0.2 nM
koff [18]: 9.4e-05 s⁻¹
kon [18]: 450000 M⁻¹ s⁻¹
IC50, DLL4-mediated reporter assay (hDLL4) [19]: 136 nM
IC50 [20]: 15.4 nM
IC50 [21]: 11 nM
IC50, DLL4-mediated HUVEC proliferation assay [22]: 5.3 nM
Inhibition (%), DLL4-mediated HUVEC proliferation assay [22]: 100%

B5: DLLBII19F12 (VHH)
VHH: EVQLVESGGGLVQAGGSLRLSCTASGSTFTSYAMGWYRQAPGKQRELVAAISSDDSTYYADCVKGRFTISRDNAKNTVYLQMNSLKPEDTAVYYCNAPHSDYDEEAPSDFGSWGQGTQVTVSS
koff (recombinant human DLL4 [23]): 0.00049 s⁻¹
% inh (recombinant human DLL4 [24]): 98%
% inh (recombinant human DLL4 [25]): 98%

B6: DLLBII28B06 (VHH)
VHH: EVQLVESGGGLVQAGGSLRLSCAASGSTFSTYAMGWYRQDPGNQRELVAAISSDGSTHYADSVKGRFTISRDNAKNTVYLQMNSLKPEDTAVYYCYAPVKVAGLEYDYWGQGTQVTVSS
koff (recombinant human DLL4 [23]): 0.0075 s⁻¹
% inh (recombinant human DLL4 [24]): 54%
% inh (recombinant human DLL4 [25]): 23%

The next lines start with the values.

Kd [18]: 1.8 nM
koff [18]: 0.00081 s⁻¹
kon [18]: 450000 M⁻¹ s⁻¹
IC50, DLL4-mediated reporter assay (hDLL4) [19]: 16 nM
IC50 [20]: 43.8 nM
IC50 [21]: 6.2 nM
IC50, DLL4-mediated HUVEC proliferation assay [22]: 14.4 nM
Inhibition (%), DLL4-mediated HUVEC proliferation assay [22]: 100%
B2: DLLBII039 (VHH, not shown: small tags and cut ends)
VHH: B1 VHH with F29I, S40A, N52S, F63Y, K87R, R103W, D108E, Q123L

Kd [18]: 0.8 nM
koff [18]: 0.00055 s⁻¹
kon [18]: 660000 M⁻¹ s⁻¹
IC50, DLL4-mediated reporter assay (hDLL4) [19]: 78 nM
IC50 [20]: 44.7 nM
IC50 [21]: 9.7 nM
IC50, DLL4-mediated HUVEC proliferation assay [22]: 7.6 nM
Inhibition (%), DLL4-mediated HUVEC proliferation assay [22]: 100%
B3: DLLBII036 (VHH, not shown: small tags and cut ends)
VHH: B1 VHH with S40A, N52S, F63Y, K87R, R103W, D108E, Q123L

koff (recombinant human DLL4 [23]): 0.00092 s⁻¹
% inh (recombinant human DLL4 [24]): 75%
% inh (recombinant human DLL4 [25]): 86%
B7: DLLBII33C05 (VHH)
VHH: EVQLVESGGGLVQAGGSLRLSCAASGFTLDNYVIGWFRQAPGKEREEVSCISSSGGSTDYLDSVKGRFTISRDNAKNTVYLQMNSLKPEDTAVYYCAADSLPCYYDKMVYDYWGQGTQVTVSS
